Data set [1] deals with Bosea sp. Root381 GapR, wild type (Bosea sp. Root381). The data set can be described thus: crystal structure.
For data set [2], the target named is Bosea sp. Root381 GapR(L48M-I54M-L73M), selenomethionine substituted (Bosea sp. Root381). Briefly: crystal structure.
For another data set, the target named is T1, GapR(11-89) WT (Caulobacter crescentus, UniProt B8H4R9 11-89).
T1 sequence: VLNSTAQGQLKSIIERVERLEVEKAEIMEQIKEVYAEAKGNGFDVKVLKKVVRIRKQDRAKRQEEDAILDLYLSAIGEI
The data set can be described thus: X-ray crystallography.

A further data set deals with T2, GapR(11-89) L83M SeMet (Caulobacter crescentus, UniProt B8H4R9 11-89, L83M).
T2 sequence: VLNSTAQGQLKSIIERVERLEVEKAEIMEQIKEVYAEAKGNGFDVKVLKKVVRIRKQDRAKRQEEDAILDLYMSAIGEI
The data set can be described thus: X-ray crystallography.

The data set “crystal structure” concerns the molecule itself. The data set can be described thus: crystal structure.
The data set “SEC-MALS” concerns the molecule itself. The data set can be described thus: SEC-MALS. A general note: Size exclusion chromatography separates by hydrodynamic size, large species first.

As usually defined, the stoichiometry N is a count of units in the complex or per binding partner. The molecule “Bosea sp. Root381 GapR, wild type (natural protein)” had a stoichiometry N in data set [1] of 4.
In data set [2], “Bosea sp. Root381 GapR(L48M-I54M-L73M), selenomethionine substituted (natural protein)” displayed a stoichiometry N of 2.

B1: AT-rich crystallization 11-mer (dsDNA)
DNA 1: TTAAAATTAAA
DNA 2: TTTAATTTTAA
Turning to B1, the binding result with GapR(11-89) WT and in the data set with GapR(11-89) L83M SeMet was “binds” throughout.

B2: C. crescentus GapR(11-89) L83M, selenomethionine substituted (domain or fragment, Caulobacter crescentus, UniProt B8H4R9 11-89, looked up)
chain: VLNSTAQGQLKSIIERVERLEVEKAEIMEQIKEVYAEAKGNGFDVKVLKKVVRIRKQDRAKRQEEDAILDLYMSAIGEI
modifications: selenomethionine substituted
On to B2, for which the “stoichiometry N” value in “crystal structure” came out at 4.

B3: Caulobacter crescentus GapR, untagged (natural protein, UniProt B8H4R9 1-89, looked up)
chain: MADDAIPHTDVLNSTAQGQLKSIIERVERLEVEKAEIMEQIKEVYAEAKGNGFDVKVLKKVVRIRKQDRAKRQEEDAILDLYLSAIGEI
For the molecule B3, in “SEC-MALS”, the “stoichiometry N” value amounted to 2.
